The values that follow come from patent US20050181450A1, “Novel inositol 1,4,5-trisphosphate (IP3) receptor-binding protein and an IP3 indicator” (priority 2002, published 2005).

Holding throughout (assay type): binding
For assay [1], the target named is T1, GST-Iab (mouse IP3R1 amino acids 1-343) (Mus musculus, UniProt P11881).
T1 construct: made in house; host or cells: Escherichia coli
The assay can be described thus: GST pulldown with GST-Iab. The settings on record: IRBIT in high salt extract. From the text:
(§1) The cDNAs encoding the full-length and N-terminal region (amino acids 1-104) of IRBIT were subcloned into the Escherichia coli hexahistidine (His) fusion vector pET-23a(+) (Novagen) to generate IRBIT-His and IRBIT(1-104)-His expression vectors, respectively. The same cDNAs were subcloned into the GST fusion vector pGEX-4T-1 (Amersham Pharmacia Biotech) to generate GST-IRBIT and GST-IRBIT(1-104) expression vectors, respectively. The cDNA fragments encoding the amino acids 1-225, 1-343, 341-923, 600-1248, 916-1581 and 1553-1943 of the amino acid sequence (SEQ ID NO: 7) of mouse IP3R1 were inserted into pGEX-KG to generate GST-Ia, GST-Iab, GST-IIab, GST-IIbIIIa, GST-IIIab and GST-IV expression vectors, respectively. The amino acids 1593-2217 of mouse IP3R1 were inserted into pGEX-4T-1 to obtain GST-IV-Va expression vector. These fusion proteins were expressed in Escherichia coli. GST-EL was expressed in Sf9 cells as described above. […]
(§2) For the determination of the IRBIT binding region and the critical amino acid residue of IP3R1, the diluted high salt extract was subjected to pulldown assay as described above with 100 pmol of GST, GST-EL, GST-Ia, GST-Iab, GST-IbIIa, GST-IIab, GST-IIbIIIa, GST-IIIab, GST-IV, GST-IV-Va, K508A or R441Q, and analyzed by Western blotting with anti-IRBIT antibody.

For assay [2], the system named is sodium bicarbonate cotransporter. The assay can be described thus: Immunoprecipitation from mouse cerebellum and mass spectrometry. The following applies: mouse cerebellar cytosol or microsome detergent extract. As for the experimental part:
Mouse cerebellar cytosol fraction or detergent extract of microsome fraction was immunoprecipitated with 50 μg of anti-IRBIT antibody or rabbit IgG. Immunoprecipitates were separated by 10% SDS-PAGE gel, and stained with Coomassie Brilliant Blue. The bands were excised from the gel and digested with lysyl endopeptidase and analyzed with mass spectrometry. Arrows indicate the bands of sodium bicarbonate cotransporter.
Mouse cerebellar cytosol fraction or detergent extract of microsome fraction was immunoprecipitated with 50 μg of anti-IRBIT antibody or rabbit IgG. Immunoprecipitates were separated by 10% SDS-PAGE gel, and stained with Coomassie Brilliant Blue (FIG. 13). The bands were excised from the gel and digested with lysyl endopeptidase and analyzed with mass spectrometry. Arrows indicate the bands of sodium bicarbonate cotransporter.

Assay [3] deals with T2, GST-IIab (mouse IP3R1 amino acids 341-923) (Mus musculus, UniProt P11881).
T2 construct: made in house; host or cells: Escherichia coli
T2 sequence (P11881 341-923): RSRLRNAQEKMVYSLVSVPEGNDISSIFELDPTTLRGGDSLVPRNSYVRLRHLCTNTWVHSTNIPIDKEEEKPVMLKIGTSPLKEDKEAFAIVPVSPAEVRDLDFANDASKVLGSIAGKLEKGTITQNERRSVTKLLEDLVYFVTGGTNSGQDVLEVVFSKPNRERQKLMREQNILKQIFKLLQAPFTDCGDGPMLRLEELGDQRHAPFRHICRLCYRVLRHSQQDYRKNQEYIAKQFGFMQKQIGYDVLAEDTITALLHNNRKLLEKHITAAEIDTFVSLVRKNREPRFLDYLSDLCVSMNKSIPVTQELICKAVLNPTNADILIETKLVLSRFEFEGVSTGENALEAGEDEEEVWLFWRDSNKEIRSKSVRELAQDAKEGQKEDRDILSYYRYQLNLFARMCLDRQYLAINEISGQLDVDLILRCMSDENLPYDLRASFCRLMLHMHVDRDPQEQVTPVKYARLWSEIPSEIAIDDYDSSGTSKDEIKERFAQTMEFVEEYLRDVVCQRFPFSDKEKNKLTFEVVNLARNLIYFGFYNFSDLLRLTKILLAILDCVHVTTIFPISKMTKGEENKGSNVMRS
The experiment in a line: GST pulldown with GST-IIab. The following applies: IRBIT in high salt extract.
Excerpt: as §1, §2

The target in assay [4] is T3, type II phosphatidylinositol phosphate kinase γ (Homo sapiens, UniProt Q8TBX8).
T3 construct: expressed in transfected cells; host or cells: Cos-7
T3 sequence (Q8TBX8 1-421): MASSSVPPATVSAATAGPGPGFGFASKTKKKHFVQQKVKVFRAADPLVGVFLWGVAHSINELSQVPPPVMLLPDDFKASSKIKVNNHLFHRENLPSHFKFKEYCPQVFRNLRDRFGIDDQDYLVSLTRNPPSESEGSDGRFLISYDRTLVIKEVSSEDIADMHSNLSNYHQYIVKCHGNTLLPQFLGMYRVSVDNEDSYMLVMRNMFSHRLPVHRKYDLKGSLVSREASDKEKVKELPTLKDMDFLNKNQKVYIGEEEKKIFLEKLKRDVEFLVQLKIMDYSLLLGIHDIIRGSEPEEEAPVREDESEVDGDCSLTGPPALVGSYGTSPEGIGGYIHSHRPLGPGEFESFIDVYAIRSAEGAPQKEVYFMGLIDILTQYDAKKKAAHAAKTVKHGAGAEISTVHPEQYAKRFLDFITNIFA
The experiment in a line: Co-immunoprecipitation in Cos-7 cells with Myc-PIPKII γ. The following applies: overexpressing Cos-7 cells. As to the method:
(§3) (A and B) IRBIT was transfected into Cos-7 cells with Myc-tagged type II phosphatidylinositol phosphate kinase α, β or γ (PIPKII α, β or γ). After two days, cells were lysed in lysis buffer, followed by centrifugation (100,000×g, 30 min). The supernatants were incubated with 3 μg of anti-IRBIT antibody, rabbit IgG, mouse anti-Myc antibody, or mouse IgG for 1 h at 4° C. After adding 5 μl of Protein G beads and another 1-h incubation, the beads were washed five times with lysis buffer and analyzed by Western blotting with anti-IRBIT antibody or HRP conjugated anti-Myc antibody. Immunoprecipitation of Myc-PIPKII α, β or γ with anti-Myc antibody co-precipitated IRBIT (A). In the reciprocal experiments, immunoprecipitation of IRBIT with anti-IRBIT antibody precipitated Myc-PIPKII α, β or γ.
(§4) IRBIT was transfected into Cos-7 cells with Myc-tagged type II phosphatidylinositol phosphate kinase α, β or γ (PIPKII α, β or γ). After two days, cells were lysed in lysis buffer, followed by centrifugation (100,000×g, 30 min). The supernatants were incubated with 3 μg of anti-IRBIT antibody, rabbit IgG, mouse anti-Myc antibody, or mouse IgG for 1 h at 4° C. After adding 5 μl of Protein G beads and another 1-h incubation, the beads were washed five times with lysis buffer and analyzed by Western blotting with anti-IRBIT antibody or HRP conjugated anti-Myc antibody.

The target of assay [5] is T4, type II phosphatidylinositol phosphate kinase α (Homo sapiens, UniProt P48426).
T4 construct: expressed in transfected cells; host or cells: Cos-7
T4 sequence (P48426 1-406): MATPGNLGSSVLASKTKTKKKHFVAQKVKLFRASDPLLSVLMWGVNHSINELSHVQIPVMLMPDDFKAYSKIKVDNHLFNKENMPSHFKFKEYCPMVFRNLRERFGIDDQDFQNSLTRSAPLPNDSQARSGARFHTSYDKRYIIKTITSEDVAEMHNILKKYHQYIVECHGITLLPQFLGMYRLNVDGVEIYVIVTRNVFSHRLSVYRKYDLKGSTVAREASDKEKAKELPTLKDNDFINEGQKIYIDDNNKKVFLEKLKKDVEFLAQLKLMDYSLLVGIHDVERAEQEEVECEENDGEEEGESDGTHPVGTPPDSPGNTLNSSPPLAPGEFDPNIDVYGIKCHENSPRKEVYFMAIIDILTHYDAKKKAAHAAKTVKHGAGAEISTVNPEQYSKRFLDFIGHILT
The assay can be described thus: Co-immunoprecipitation in Cos-7 cells with Myc-PIPKII α. The settings on record: overexpressing Cos-7 cells. As to the method: as §3, §4

Assay [6] has as its target T5, K508A mutant of GST-IbIIa (Mus musculus, UniProt P11881, K508A).
T5 construct: GST-IbIIa (amino acids 224-604 of mouse IP3R1) and its site-directed mutants K508A and R441Q; made in house
The assay can be described thus: GST pulldown with K508A. The following applies: IRBIT in high salt extract.
Excerpt: as §1, §2

T5 sequence (P11881 224-604 K508A): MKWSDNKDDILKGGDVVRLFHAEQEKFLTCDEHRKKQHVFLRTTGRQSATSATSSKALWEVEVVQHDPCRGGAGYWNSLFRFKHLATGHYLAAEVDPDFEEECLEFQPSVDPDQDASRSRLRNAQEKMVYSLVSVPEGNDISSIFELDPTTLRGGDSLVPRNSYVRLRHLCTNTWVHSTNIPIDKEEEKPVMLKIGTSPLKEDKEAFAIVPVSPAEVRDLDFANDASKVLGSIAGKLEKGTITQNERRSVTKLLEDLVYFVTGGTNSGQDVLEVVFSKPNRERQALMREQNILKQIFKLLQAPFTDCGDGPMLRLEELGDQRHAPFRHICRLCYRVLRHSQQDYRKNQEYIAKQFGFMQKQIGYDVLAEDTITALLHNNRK
T1 sequence (P11881 1-343): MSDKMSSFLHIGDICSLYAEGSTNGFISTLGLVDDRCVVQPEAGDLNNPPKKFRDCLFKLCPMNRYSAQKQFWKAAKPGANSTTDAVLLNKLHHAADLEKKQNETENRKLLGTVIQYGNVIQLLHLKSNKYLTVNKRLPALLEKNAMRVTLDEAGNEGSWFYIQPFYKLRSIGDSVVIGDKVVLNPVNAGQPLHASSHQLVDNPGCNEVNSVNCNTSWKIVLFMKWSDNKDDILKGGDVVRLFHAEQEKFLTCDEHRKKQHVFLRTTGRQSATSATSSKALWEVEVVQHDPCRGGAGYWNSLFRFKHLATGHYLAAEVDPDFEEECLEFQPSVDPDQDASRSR

B1: IRBIT: novel IP3 receptor-binding protein of 530 amino acids, SEQ ID NO: 1 (protein, listed as Mus musculus)
chain: MSMPDAMPLPGVGEELKQAKEIEDAEKYSFMATVTKAPKKQIQFADDMQEFTKFPTKTGRRSLSRSISQSSTDSYSSAASYTDSSDDEVSPREKQQTNSKGSSNFCVKNIKQAEFGRREIEIAEQDMSALISLRKRAQGEKPLAGAKIVGCTHITAQTAVLIETLCALGAQCRWSACNIYSTQNEVAAALAEAGVAVFAWKGESEDDFWWCIDRCVNMDGWQANMILDDGGDLTHWVYKKYPNVFKKIRGIVEESVTGVHRLYQLSKAGKLCVPAMNVNDSVTKQKFDNLYCCRESILDGLKRTTDVMFGGKQVVVCGYGEVGKGCCAALKALGAIVYITEIDPICALQACMDGFRVVKLNEVIRQVDVVITCTGNKNVVTREHLDRMKNSCIVCNMGHSNTEIDVTSLRTPELTWERVRSQVDHVIWPDGKRVVLLAEGRLLNLSCSTVPTFVLSITATTQALALIELYNAPEGRYKQDVYLLPKKMDEYVASLHLPSFDAHLTELTDDQAKYLGLNKNGPFKPNYYRY
B1: the “interaction with GST-Iab” value in assay [1] was “did not interact”. Besides, in assay [2], the “interaction with sodium bicarbonate cotransporter” value was “interacted”. For the same molecule, in assay [3], the “interaction with GST-IIab” value is “did not interact”. For the same molecule, in assay [4], the “interaction with PIPKII γ” value is given as “interacted”. Further, the “interaction with PIPKII α” value in assay [5] is “interacted”. In addition, the “binding to K508A” value in assay [6] was “did not bind”.
